We go through nine molecules from US20240247072A1 (KEYMED BIOSCIENCES, published 2024).

The target of assay [1] is T1, recombinant trimeric protein of human CD70 extracellular region (human CD70 mIgG Fc (knob) / mouse IgG Fc … (human, UniProt P01863 98-330 = IgG part)).
T1 construct: The ELISA and Octet texts say only 'recombinant CD70 protein' / 'CM352 antigen'; also called recombinant human CD70 protein; recombinant CD70 protein
T1 chain 1: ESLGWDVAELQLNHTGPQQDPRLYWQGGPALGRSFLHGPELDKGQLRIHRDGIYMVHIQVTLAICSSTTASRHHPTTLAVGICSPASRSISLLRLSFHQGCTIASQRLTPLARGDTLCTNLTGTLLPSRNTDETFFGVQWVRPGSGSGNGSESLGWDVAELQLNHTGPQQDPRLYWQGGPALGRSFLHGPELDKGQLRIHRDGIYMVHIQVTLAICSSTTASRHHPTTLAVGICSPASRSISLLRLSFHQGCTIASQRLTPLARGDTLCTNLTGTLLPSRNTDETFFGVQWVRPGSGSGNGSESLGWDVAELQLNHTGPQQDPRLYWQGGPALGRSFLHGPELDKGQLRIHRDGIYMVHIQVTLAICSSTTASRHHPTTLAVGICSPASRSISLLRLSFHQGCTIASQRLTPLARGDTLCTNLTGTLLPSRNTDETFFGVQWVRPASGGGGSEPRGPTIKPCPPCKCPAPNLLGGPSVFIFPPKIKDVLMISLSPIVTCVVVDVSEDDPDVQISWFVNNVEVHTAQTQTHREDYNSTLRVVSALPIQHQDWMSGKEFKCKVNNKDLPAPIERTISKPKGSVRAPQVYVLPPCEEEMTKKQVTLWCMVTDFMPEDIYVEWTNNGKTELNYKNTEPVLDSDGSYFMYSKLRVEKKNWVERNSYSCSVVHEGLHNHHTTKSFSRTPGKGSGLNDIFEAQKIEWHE
T1 chain 2: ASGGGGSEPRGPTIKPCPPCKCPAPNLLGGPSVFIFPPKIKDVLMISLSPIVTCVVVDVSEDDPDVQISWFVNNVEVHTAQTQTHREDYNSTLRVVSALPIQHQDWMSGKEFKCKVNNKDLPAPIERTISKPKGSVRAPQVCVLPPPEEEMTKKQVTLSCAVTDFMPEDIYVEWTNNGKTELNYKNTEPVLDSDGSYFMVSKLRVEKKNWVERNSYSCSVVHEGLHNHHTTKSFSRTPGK
Kind of assay: competition ELISA, Fab titrated, human CD27 coated, biotin-CD70. The protocol:
The next day, the plate was washed 3 times with PBS, added with 200 μL of 2% defatted dry milk/PBS, blocked at room temperature for 2 hours, and washed once with PBS, 50 μL of different dilution gradients of Fab antibodies were added and incubated at room temperature for 30 minutes. […] The plate was washed 3 times with PBST and PBS and dried by spinning. A secondary antibody solution Streptavidin-coupled horseradish peroxidase SA-HRP (BD bioscience, Cat. No: 6222697) was diluted with 0.5% BSA in a ratio of 1:8000. 100 μl of the diluent was added into each well and incubate at room temperature for 30 minutes. The plate was washed 3 times with PBST and PBS and dried by spinning. 100 μl of the color development solution (TMB solution, Sigma, Cat. No: T2885) was added into each well and protected from light at 37° C. for reaction. After the substrate developed moderately, 50 μl of 2M concentrated sulfuric acid solution was added into each well to terminate the reaction. The OD450 nm was determined by using an enzyme-linked detector within 30 minutes, and the data was collected.
In general terms: ELISA stands for enzyme-linked immunosorbent assay.

Assay [2] has as its target T2, human CD70, full length, on CHO cells (CHO-human CD70-B07) (human, UniProt P32970 1-193).
T2 construct: whole, on cells; Stably transfected CHO cells; also called CHO-CD70
T2 sequence (looked up): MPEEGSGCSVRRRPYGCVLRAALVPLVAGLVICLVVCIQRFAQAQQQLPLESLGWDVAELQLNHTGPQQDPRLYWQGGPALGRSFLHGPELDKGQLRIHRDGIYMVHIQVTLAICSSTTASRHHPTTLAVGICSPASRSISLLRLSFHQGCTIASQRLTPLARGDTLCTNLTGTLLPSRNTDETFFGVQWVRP
Kind of assay: flow cytometry, Fab on CHO-human CD70 cells. The protocol: The blank control cell CHO and stably-transfected cell line CHO-CD70 were prepared and added at 5×10⁴ cells/well into a 96-well plate respectively. 50 μL of Fab antibodies with different dilution gradients were added into each well and incubated at 4° C. for 60 minutes. The centrifuge was performed to discard the supernatant. The plate was washed with 0.5% BSA/PBS and added with 50 μL of a secondary antibody solution (Anti-human IgG F (ab′) 2-AF647, Jackson Immuno Research) and incubated at 4° C. for 45 minutes. The excess secondary antibody was washed off with 0.5% BSA. The PBS solution was added to resuspend cells for flow cytometry. The data was collected.
In general terms: A flow cytometer gives signals particle by particle.

Assay [3] addresses T1, recombinant trimeric protein of human …. Kind of assay: BLI (Octet), biotin antigen on SA probe, Fab in solution.
Assay [4] deals with T2, human CD70, full length, on CHO cells …. Nature of the assay: flow cytometry, chimeric IgG on CHO-human CD70 cells. How it is done:
Different cells in logarithmic growth phase were taken, blocked with 3% BSA for 30 minutes, and plated to a 96-well U-plate at 5×10⁴ cells/100 μL. The centrifuge was performed at 1100 rpm for 3 minutes. The supernatant was discarded and the cells were gently tapped to be loosening. 50 μL of gradient diluted antibody was added (antibody concentration: from 30 μg/mL, 3-fold dilution for 5 gradients) per well, and incubated at 4° C. for 1 hour. After incubation, 180 μL of 0.5% BSA was added to each well for washing 3 times. 30 μL/well of secondary antibody AlexaFluro647 anti-human IgG (Jackson Immuno Research, Cat. No: 109-606-170) was added and incubated at 4° C. for 45 minutes. At the end of the incubation, each well was washed 3 times with 180 μL of 0.5% BSA and finally resuspended in 50 μL of PBS for iQue (Intellicyt, USA) assay.

The target in assay [5] is T1, recombinant trimeric protein of human …. Kind of assay: competition ELISA, chimeric IgG titrated, CD27 coated, biotin-CD70, human pair. How it is done:
The recombinant CD27 protein was coated at 1 μg/mL in a 96-well microtiter plate and incubated overnight at 4° C. The next day, the plate was washed 3 times with PBS, added with 200 μL of 2% defatted dry milk/PBS, blocked at room temperature for 2 hours, and washed once with PBS. The purified chimeric antibody was divided to 12 concentration gradients starting at 100 nM and diluted in a 1:3 gradient. […] of the antibody was added per well and incubated at room temperature for 30 minutes. […] The plate was washed 3 times with PBST and PBS and dried by spinning. A secondary antibody Streptavidin-coupled horseradish peroxidase SA-HRP (BD bioscience, cat. No: 6222697) was diluted with 0.5% BSA in a ratio of 1:8000. 100 μL of the diluent was added into each well and incubated at room temperature for 30 minutes. The plate was washed 3 times with PBST and PBS and dried by spinning. 100 μl of color development solution (TMB solution, Sigma, Cat. No: T2885) was added into each well and protected from light at 37° C. for reaction. After the substrate developed moderately, 50 μl of H₂SO₄ was added into each well to terminate the reaction. The OD450 nm was determined by using an enzyme-linked detector within 30 minutes, and the data was collected. The results were calculated by using Graph Pad Prism 5 software.

B1: 2B12 Fab antibody (Fab, V domains shown)
VH: QVQLQQSGPGLVQPSQSLSITCTVSGFSLTTYAVHWVRQSPGKGLEWLGVIWSTGITDYNAAFISRLSISKDNSKSQVFFKMNSLQSDDIAIYYCARNPYYGNLNAMDYWGQGTSVTVSS
VL: DIVLTQSPASLAVSLGQRATISCRASKSVDTSGYSFMHWYQQKPGQPPKLLIYLASNLESGVPARFSGSGSGTDFTLNIHPVEEEDAATYYCQHSRELPLTFGAGTKLELK
notes: Purified Fab from the mouse Fab phage display library
A word on the IC50: it is the concentration that gives 50% inhibition. As usually defined, the EC50 is the midpoint of the concentration-response curve. Lower therefore signals a more potent agent. The term koff denotes a measure of how fast the partners let go of each other. For B1, the IC50 in assay [1] turned out to be 0.29 nM. In addition, in assay [2], the EC50 came to 8.6 nM. Besides, the koff in assay [3] worked out at 0.000125 s⁻¹.

B2: 14C12 Fab antibody (Fab, V domains shown)
VH: EVQLQQSGPELVKPGASVKMSCKASGYTFTDYVIHWVKQKPGQGLEWIGYLHPYNDDTKYNEKFKGKATLTSDKSSSTAYMELSSLTSEDSAVYYCARRGYYDYAWFADWGQGTLVTVSA
VL: DIVLTQSPASLAVSLGQRATISCRASKSVSASGYTWIHWYQQKPRQAPKLLIYLASNLESGVPARFSGSGSGTDFTLNIHPVEEEDAATYYCQHSRELPPTFGGGTKLEIK
notes: as for B1
Take B2: the IC50 in assay [1] worked out at 0.79 nM. Besides, in assay [2], the EC50 came out at 28 nM. In assay [3], the koff was found to be 0.000321 s⁻¹.

B3: 23A11 chimeric antibody (antibody, V domains shown)
VH: QVQLQQSGPGLVQPSQSLSITCTVSGFSLTTYAVHWVRQSPGKGLEWLGVIWSVGSTDYNAAFISRLSISKDNSKSQVFFKMNSLQADDTAIYYCARNIYYGNVYAMDYWGQGTSVTVSS
VL: DIVLTQSPASLAVSLGQRATISCRASKSVDASGYSFMHWYQQKAGQPPKLLIYLASNLESGVPARFSGRGSGTDFTLNIHPVEEGDAATYYCQHSRELPLTFGAGTKLEIK
In turn, B3 came in with an EC50 in assay [4] of 11.9 nM. The concentration for half-maximal inhibition (IC50) in assay [5] was 0.07 nM.

B4: 12A1 Fab antibody (Fab, V domains shown)
VH: QVQLQQSGPGLVQPSQSLSITCTVSGFSLTTYAVHWVRQSPGKGLEWLGVIWSTGITDYNAAFISRLSISKDNSKSQVFFKMDSLQSDDTAIYFCARNPHYGNLNAMDYWGQGTSVTVSS
VL: DIVLTQSPASLAVSLGQRATISCRASKSVSASGYTWMHWYQQKPGQAPKLLIYLASNLESGVPARFSGSGSGTDFTLNIHPVEEEDAATYYCQHSRELPPTFGGGTKLEIK
notes: as for B1
In the case of B4, the IC50 in assay [1] was 1.88 nM. For the same molecule, in assay [2], the EC50 worked out at 17.7 nM. For the same molecule, the koff in assay [3] turned out to be 0.000317 s⁻¹.

B5: 27A3 Fab antibody (Fab, V domains shown)
VH: EVQLQESGPGLVQPSQSLSITCTVSGFSLTTYAVHWVRQSPGKGLEWLGVIWSTGITDYNADFISRLSISKDNSKSQVFFKMDSLQSDDTAIYFCARNHYYGNLNAMDYWGQGTSVTVSS
VL: DIVLTQSPASLAVSLGQRATISCRASKSVSTSGYSFMHWYQQKPGQPPKLLIYLASNLESGVPARFSGSGSGTDFTLNIHPVEEEDAATYYCQHSRELPYTFGGGTKLEIK
notes: as for B1
B5: the IC50 in assay [1] is 0.51 nM. Besides, the EC50 in assay [2] came out at 12.4 nM. For the same molecule, in assay [3], the koff was found to be 0.000172 s⁻¹.

B6: 23A11 Fab antibody (Fab, V domains shown)
VH: QVQLQQSGPGLVQPSQSLSITCTVSGFSLTTYAVHWVRQSPGKGLEWLGVIWSVGSTDYNAAFISRLSISKDNSKSQVFFKMNSLQADDTAIYYCARNIYYGNVYAMDYWGQGTSVTVSS
VL: DIVLTQSPASLAVSLGQRATISCRASKSVDASGYSFMHWYQQKAGQPPKLLIYLASNLESGVPARFSGRGSGTDFTLNIHPVEEGDAATYYCQHSRELPLTFGAGTKLEIK
notes: as for B1
With B6, the IC50 in assay [1] was determined as 0.5 nM. Also, the EC50 in assay [2] was found to be 15.6 nM. Besides, the koff in assay [3] was determined as 0.000403 s⁻¹.

B7: 32D1 Fab antibody (Fab, V domains shown)
VH: EVQLQQSGPELVKPGASLKMSCKASGYTFTDYVIHWVKQKPGQGLEWIGYLHPYNDDTKYNEKFKGKATLTSDKSSSTAYMELNSLTSEDSAVYYCARRGYYDYAWFADWGQGTLVTVSA
VL: DIVLTQSPASLAVSLGQRATISCKASKSVSASGYTWMHWYQQKPGQAPKLLIYLASNLESGVPARFSGSGSGTDFTLNIHPVEEEDAATYYCQHSRELPPTFGGGTKLEIK
notes: as for B1
Take B7: the IC50 in assay [1] is 2.26 nM. The molecule also had an EC50 in assay [2] of 8.1 nM. The koff in assay [3] was 0.00183 s⁻¹.

B8: 12A1 chimeric antibody (antibody, V domains shown)
VH: QVQLQQSGPGLVQPSQSLSITCTVSGFSLTTYAVHWVRQSPGKGLEWLGVIWSTGITDYNAAFISRLSISKDNSKSQVFFKMDSLQSDDTAIYFCARNPHYGNLNAMDYWGQGTSVTVSS
VL: DIVLTQSPASLAVSLGQRATISCRASKSVSASGYTWMHWYQQKPGQAPKLLIYLASNLESGVPARFSGSGSGTDFTLNIHPVEEEDAATYYCQHSRELPPTFGGGTKLEIK
Take B8: a half-maximal effect in assay [4] (EC50) was put at 7.55 nM. In addition, in assay [5], the IC50 is 0.12 nM.

B9: 3B2 Fab antibody (Fab, V domains shown)
VH: EVQLKQSGPGLVQPSQSLSITCTVSGFSLTTYGVHWVRQSPGKGLEWLGVIWSTGITDYNAAFISRLSISKDNSKSQVFFKMNSLQADDTAIYYCARNSYYGNLYVMDYWGQGTSVTVSS
VL: DIVLTQSPASLAVSLGQRATISCRASKSVSASGYNFMHWYQQKPGQPPKLLIYLASNLESGVPARFSGSGSGTDFTLNIHPVEEEDAATYYCQHSRELPLTFGAGTKLELK
notes: as for B1
Turning to B9, the IC50 in assay [1] is 0.32 nM. In addition, the EC50 in assay [2] turned out to be 14.2 nM. The koff in assay [3] worked out at 0.000325 s⁻¹.
